Substrate in data set [1]: N[C@H]1C(C(=O)O)=CC=C[C@@H]1O
As to the kind of experiment: purified protein. The class given is biochemical, Pseudomonas fluorescens. The settings on record: 50 mM sodium phosphate pH 7.5, 1% DMSO, 25 °C.

Substrate in data set [2]: CCOC1C=CC=C(C(=O)O)C1N
As to the kind of experiment: purified protein. The settings on record: 50 mM sodium phosphate pH 7.5, 1% DMSO, 25 °C, 1000 nM PhzF, racemic substrate. The class given is biochemical, Pseudomonas fluorescens.

Where [3] appears, read: 200 nM PhzF, labelled compound (deuterated at C3).

B1: PhzF (Pseudomonas fluorescens) (protein)
chain: MHNYVIIDAFASVPLEGNPVAVFFDADDLPPAQMQRIAREMNLSESTFVLKPRNGGDALIRIFTPVNELPFAGHPLLGTAIALGAHTDNHRLYLETQMGTIAFELERQNGSVIAASMDQPIPTWTALGRDAELLKALGISDSTFPIEIYHNGPRHVFVGLPSIDALSALHPDHRALSNFHDMAINCFAGAGRRWRSRMFSPAYGVVEDAATGSAAGPLAIHLARHGQIEFGQPVEILQGVEIGRPSLMFAKAEGRAEQLTRVEVSGNGVTFGRGTIVL
notes: N-terminal His6 tag, expressed in E. coli, homodimer
The Km is the concentration of substrate that gives half-maximal velocity. The kcat is the maximal rate divided by the concentration of active sites. Consider B1, for which the Km in the data set “purified protein [1]” (40 nM PhzF dimer) is 517 ± 57 µM; in the data set “purified protein [1]” (setting [3]) it was 311 ± 14 µM; in “purified protein [2]”, 1842 ± 355 µM. For the same protein, the figures for the kcat in the data set “purified protein [1]” (40 nM PhzF dimer), in “purified protein [1]” (setting [3]) and in “purified protein [2]” were 3.23 ± 0.19 s⁻¹, 0.34 ± 0.01 s⁻¹ and 0.12 ± 0.02 s⁻¹, respectively.

Source of the values: PMC5524880, “Mechanisms and Specificity of Phenazine Biosynthesis Protein PhzF” (Scientific Reports, 2017).
